Reference: article PMC6698835 (Antibodies, 2018)

Experiments:
Conditions in all cases: both partners purified
Shiga toxin 1 (Stx1) [1] = molecular target: T1, Shiga toxin 1 (Stx1) (Escherichia coli (STEC), strain not …, UniProt P08026;P69179); assay: ELISA; […]; room temperature; in triplicate
T1 construct: source: bought: Tufts University School of Medicine; copies: 1 + 5

Stx2 toxin = Stx2 toxin (Escherichia coli (STEC), strain not …, UniProt P09385;P09386); assay: ELISA; […]; room temperature; in triplicate
Chain of Stx2 toxin (P09386 whole entry, looked up, chain 1 of 2): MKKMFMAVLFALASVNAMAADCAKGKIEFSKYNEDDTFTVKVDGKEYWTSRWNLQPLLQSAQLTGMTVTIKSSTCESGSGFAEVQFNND
Chain of Stx2 toxin (P09385 whole entry, looked up, chain 2 of 2): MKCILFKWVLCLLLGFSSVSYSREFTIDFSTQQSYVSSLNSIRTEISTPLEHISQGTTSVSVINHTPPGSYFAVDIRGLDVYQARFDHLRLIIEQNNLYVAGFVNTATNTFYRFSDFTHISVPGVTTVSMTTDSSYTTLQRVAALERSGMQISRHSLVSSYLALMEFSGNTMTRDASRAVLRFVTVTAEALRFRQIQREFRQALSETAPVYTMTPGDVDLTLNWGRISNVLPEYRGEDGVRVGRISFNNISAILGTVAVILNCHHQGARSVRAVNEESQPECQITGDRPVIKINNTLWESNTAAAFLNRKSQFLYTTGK

Shiga toxin 1 (Stx1) [2] = molecular target: T1, Shiga toxin 1 (Stx1); assay: SPR; […]; HBS-EP pH 7.4; 25 °C; 30 uL/min; […]; Langmuir 1:1 model; BIAcore T200; in duplicate

T1 sequence (P69179 whole entry, looked up, chain 1 of 2): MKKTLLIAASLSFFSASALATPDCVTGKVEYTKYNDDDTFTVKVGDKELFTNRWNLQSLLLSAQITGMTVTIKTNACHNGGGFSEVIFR
T1 sequence (P08026 whole entry, looked up, chain 2 of 2): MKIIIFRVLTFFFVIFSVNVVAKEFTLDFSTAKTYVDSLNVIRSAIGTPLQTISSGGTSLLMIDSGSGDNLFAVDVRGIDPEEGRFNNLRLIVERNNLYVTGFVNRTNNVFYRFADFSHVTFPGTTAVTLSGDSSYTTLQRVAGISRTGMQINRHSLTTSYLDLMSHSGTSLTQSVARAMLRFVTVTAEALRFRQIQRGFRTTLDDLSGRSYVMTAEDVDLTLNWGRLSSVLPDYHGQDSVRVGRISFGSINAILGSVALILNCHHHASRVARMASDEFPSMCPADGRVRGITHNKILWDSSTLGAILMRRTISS

B1: scFvStx1 (scFv, V domains shown)
VH: EVQLQQSGPELVKPGTSVKMSCKASGYTFTDYFIHWVKQSHGKSLEWIGYIYPKNDGNDYNQKFKGKATLTVDKSSSTGYMELRSLTSEDSAVYYCARSRGYYGALDYWGQGTSVTVSR
VL: DLQLTQSPATLSVNPGDSVSLSCRASQSIRNDLHWYQQKSHESPRLLIKSVSQSISGIPSRFSGSGSGTDFTLSINSVETEDFGMYFCQQSYSWPLTFGAGTK
notes: also called scFvStx1(II); new scFvStx1; source: E. coli BL21 (DE3) pLysS, periplasmic expression, purified (IMAC)
- EC50 (Shiga toxin 1 (Stx1) [1]): 600 nM
- binding result (Stx2 toxin): binds
- Kd (Shiga toxin 1 (Stx1) [2]): 226 nM
